From US20150359843A1 (AGENCY FOR SCIENCE TECHNOLOGY AND RESEARCH, published 2015) come the findings set out here.

No end group written: not given here.

The assay has as its target T1, p53 wt-FL (human, UniProt P04637 1-393).
T1 construct: mature; Full-length protein made by in vitro transcription/translation, used unpurified in the IVT mixture; also called wild-type full length p53; IVT synthesized p53 wt-FL
Put plainly: ELISA conformation 1: biotinylated peptide on streptavidin plate, IVT p53 wt-FL added, detected with DO-1, Bp53 10.1 or CM1 and HRP secondary; ctrl = no p53 extract. A general note: An ELISA detects its analyte on a solid surface through an enzyme-linked reagent.

T1 sequence (P04637 whole entry): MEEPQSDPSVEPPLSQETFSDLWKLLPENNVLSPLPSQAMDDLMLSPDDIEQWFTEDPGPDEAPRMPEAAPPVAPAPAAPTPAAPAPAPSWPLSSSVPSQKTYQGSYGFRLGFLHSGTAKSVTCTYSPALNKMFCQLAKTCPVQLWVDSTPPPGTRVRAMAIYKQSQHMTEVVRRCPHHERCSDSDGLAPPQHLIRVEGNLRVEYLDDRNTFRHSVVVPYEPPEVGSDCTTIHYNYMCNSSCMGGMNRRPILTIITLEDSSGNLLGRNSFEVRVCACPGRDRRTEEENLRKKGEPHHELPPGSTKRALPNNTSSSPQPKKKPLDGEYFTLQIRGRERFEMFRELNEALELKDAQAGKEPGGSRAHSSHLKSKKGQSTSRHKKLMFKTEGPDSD

With MPHLMAC (also: biotin at N- or C-terminus in ELISA forms, also called peptide MPH) [Pap-MPH], the binding result is recorded as “no binding”. Regarding SPTTNH (also: biotin at N- or C-terminus in ELISA forms only, also called peptide SPT; Peptide-P1) [Pap-SPT], the binding result is given as “no binding”.
